# Data taken from US20240343781A1.
# Assays:
# Rf1 = test: ELISA
# Yunnan2011 = test: ELISA
# RaTG13 = test: ELISA
# GX-Pangolin = test: ELISA
# WIV1 = test: ELISA
# Rs4081 = test: ELISA
# SARS-CoV = test: ELISA
# BtKY72 = test: ELISA
# RmYN02 = test: ELISA
# SHC014 = test: ELISA
# BM-4831 = test: ELISA
# SARS-CoV-2 Spike = test: SPR
# [1] = molecular target: SARS-CoV Spike (SARS-CoV) (UniProt P59594); test: SPR
Substance,EC50 (Rf1) [µg/mL],EC50 (Yunnan2011) [µg/mL],EC50 (RaTG13) [µg/mL],EC50 (GX-Pangolin) [µg/mL],EC50 (WIV1) [µg/mL],EC50 (Rs4081) [µg/mL],EC50 (SARS-CoV) [µg/mL],EC50 (BtKY72) [µg/mL],EC50 (RmYN02) [µg/mL],EC50 (SHC014) [µg/mL],EC50 (BM-4831) [µg/mL],Kd (SARS-CoV-2 Spike) [pM],Kd [1] [pM]
ADG-2,> 10,> 10,> 10,0.089,0.005,> 10,0.002,0.005,> 10,0.003,0.711,0.983,–
COVA1-16,7.07,> 10,0.614,0.043,> 10,> 10,> 10,> 10,> 10,0.049,> 10,1.29,19500
DH1047,> 10,0.011,0.003,0.006,0.003,0.013,0.009,0.003,0.01,0.003,0.002,1.06,–
REGN10985,> 10,> 10,> 10,3.3,0.003,> 10,> 10,0.001,> 10,0.003,0.72,8.72,–
S2H97,0.005,0.124,0.008,0.026,0.54,0.009,0.015,0.006,0.011,> 10,0.009,4.53,–
S2X259,> 10,> 10,> 10,0.035,0.005,2.29,0.016,0.004,> 10,0.007,0.005,0.895,–
S309,> 10,> 10,> 10,0.052,0.023,> 10,0.011,> 10,> 10,–,0.286,1.94,–
